Data: article PMC9655291

What was measured:
[1] = target: eel follicle-stimulating hormone receptor wild-type (eel)

Substance: recombinant eel FSH (tethered eel FSH β/α) (ligand)
- EC50 of cAMP accumulation (HTRF) in transfected CHO-K1 cells stimulated with rec-eel FSH, 0.01-1500 ng/mL [1]: 0.201 µg/mL
- EC50 of cAMP accumulation (HTRF) in transfected CHO-K1 cells stimulated with rec-eel FSH, 0.01-1500 ng/mL (eel FSHR-N120Q (eel)): 0.283 µg/mL
- EC50 of cAMP accumulation (HTRF) in transfected CHO-K1 cells stimulated with rec-eel FSH, 0.01-1500 ng/mL (eel FSHR-N288Q (eel)): 0.281 µg/mL
- EC50 of cAMP accumulation (HTRF) in transfected CHO-K1 cells stimulated with rec-eel FSH, 0.01-1500 ng/mL (eel FSHR-N272Q (eel)): 0.327 µg/mL
